Values joined by “and” are separate entries in the source; they are usually repeats but may differ in a detail not shown here. Equal values may be shown once.
Experiments:
Format in all cases: in vivo
[1] = PK study E3826-U1704 in naïve C57BL/6 mice (human IL-2 ELISA of plasma)
Protocol: (§1) Terminal blood samples were collected via cardiac puncture at the points indicated. […] Plasma and blood cells (in both studies) and tumors in study E3826-U1803 were collected for PK and PD analyses.
(§2) Bioanalysis of plasma samples was performed using a qualified human IL-2 ELISA assay (Abcam, Cambridge, UK). Concentrations of Aldesleukin, E62_30kD and P65_30kD and the internal standard in samples derived from plasma were determined using an ELISA assay. […] The PK data were imported into Phoenix WinNonlin v6.4 (Certara/Pharsight, Princeton, N.J.) for analysis. The group mean plasma concentration versus time data were analyzed with noncompartmental methods using an IV bolus administration model.

[2] = Plasma and tumor PK study E3826-U1803 in B16-F10 tumor-bearing C57BL/6 mice
Protocol: as §1, §2
The tail end of the curves cross showing the plasma eliminates faster than the tumor (data not shown).

[3] = MTD / toxicology study E3826-U1802 in naïve Balb/c mice (hematology, histopathology, organ weight, cytokines); details: mouse, in vivo
Protocol: A dose ranging study of P65_30kD was conducted in naïve female Balb/c mice at Crown Biosciences, Inc. (San Diego, Calif.). […] Blood samples were drawn via sub mandibular vein at 8 time points (0.25, 1, 4, 12, 24, 34, 48 & 72 h).
A major of toxicity associated with high-dose aldesleukin is vascular leak syndrome and associated Cytokine Release Syndrome (CRS). […] The analysis performed was hematology, histopathology, organ weight, and cytokine analyses.

[4] = tested on: CT-26 colon tumors; assay: Efficacy in CT-26 tumor-bearing Balb/c mice, Studies 1-3 (tumor growth inhibition, survival); details: for median survival time: Compound A 6 mg/kg QWx3, anti-PD-1 antibody 10 mg/kg BIWx3, or both
From the text: Studies of Compound A as monotherapy and in combination with an anti-PD-1 antibody were undertaken in Balb/c female mice. […] Balb/c female mice, 7-8 weeks of age, with an average weight of 18 to 22 g were purchased from Taconic Biosciences by HD Biosciences for study 3. Cryogenically preserved vials of CT-26 colon cancer cells were purchased from American Tissue Type Collection (ATCC, Manassas, Va.). Cells were thawed and cultured according to the manufacturer's protocol. On the day of tumor cell inoculation, cells were washed in serum-free media, counted, and resuspended in cold serum-free media at a concentration of 250,000 (studies 1 and 2) or 300,000 (study 3) viable cells per 0.1 mL. The CT-26 cells (0.1 mL) were injected subcutaneously into the flanks of individual mice and tumors were allowed to grow.
For studies 1 and 2 in which a combination of Compound A and an anti-PD-1 antibody were used, the antibody used was anti-mouse PD-1 (BioXcell; RMP1-14) and the control antibody was IgG1 isotype antibody (BioXcell; catalog #BP0089, lot #2A3). For study 3 in which an anti-PD-1 antibody was used, the antibody used was anti-mouse PD-1 (BioXcell; catalog #BP0146, RMP1-14, lot #695318A1) and the control antibody was IgG1 isotype antibody (BioXcell; catalog #BP0089, lot #2A3).
Lyophilized Compound A was reconstituted into 10 mg/mL stock with 0.1 M acetic acid. It was then further diluted into working concentration with 1× phosphate buffered saline (PBS). The compound was reconstituted and diluted within an hour of dosing of animals and kept on ice until dosing. The lyophilized compound was stored at −80° C. before use. Vehicle was stored at 4° C.
Three separate efficacy studies were performed using CT-26 tumor-bearing Balb/c mice. The design for study 1, which evaluated Compound A for dose-dependent efficacy as a single agent, is outlined in Table 19. The designs for studies 2 and 3, which evaluated the efficacy of Compound A in combination with an anti-PD-1 antibody, are outlined in Table 20 and Table 21, respectively. The route of administration for Compound A was intravenous (IV). IV dosing in the mice was done via the tail vein. The antibody was administered intraperitoneally (IP). All agents were administered based on the individual body weight of each animal obtained immediately prior to each dosing. Details on the dosing regimen are described below.
In Study 1, CT-26 tumor-bearing mice were treated with vehicle IV once a week for a total of 3 doses (QWx3) or Compound A at 0.3, 1, or 3 mg/kg IV, either once a week for a total of three doses (QWx3), or once every 2 weeks for a total of 2 doses (Q2Wx2), starting on Day 4 following tumor cell inoculation when the average tumor volume was ˜80 mm^3.
In Study 2, CT-26 tumor-bearing mice were treated on Day 5 following tumor cell inoculation when the average tumor volume was ˜80 mm^3. Dosing was with vehicle IV QWx3+ IgG isotype control IP or Compound A at 3 or 6 mg/kg IV, on a QWx3 dosing schedule, or anti-PD-1 antibody at 10 mg/kg IP, or the combination of Compound A at 6 mg/kg IV QWx3+ anti-PD-1 antibody at 10 mg/kg IP. The IP dosing of the antibody in all cases was twice a week for 3 weeks with a total of 6 doses (BIWx3).
In Study 3, CT-26 tumor-bearing mice were treated on Day 7 following tumor cell inoculation when the average tumor volume was ˜70 mm3. Dosing was with vehicle IV QWx3+ IgG isotype control IP BIWx3; or Compound A at 1, 3, 6, or 9 mg/kg IV on a QWx3 dosing schedule, or anti-PD-1 antibody at 10 mg/kg IP BIWx3; or the combination of Compound A at 1, 3, or 6 mg/kg IV QWx3+ anti-PD-1 antibody at 10 mg/kg IP BIWx3.
Animals were observed daily for clinical signs.
Tumor growth was monitored using digital caliper measurements every 3 to 4 days until the end of the study. Tumor volume was calculated as Width^2×Length/2, where width is the smallest dimension and length is the largest. Raw tumor volume data are presented in the study reports. […]

[5] = C57BL/6 female mice, single IV bolus 0.3 mg/kg, E62_5 kD from a separate study
[6] = B16-F10 tumor-bearing C57BL/6 female mice, 3 mg/kg single IV dose

P65_30kD: SEQ ID NO: 25: IL-2 (SEQ ID NO: 4) with P65 replaced by AzK click-conjugated to methoxy linear 30 kDa PEG [Compound P65_30kD]
fold extended t1/2 compared to aldesleukin ([1]; 0.3 mg/kg IV): 23 fold
fold reduced CL compared to aldesleukin ([1]; 0.3 mg/kg IV): about 198 fold
AUC0-t [1, 5]: 45,600 h*ng/mL
AUCINF [1, 5]: 45,600 h*ng/mL
CL [1, 5]: 0.11 mL/min/kg
Cmax [1, 5]: 4,870 ng/mL
Tmax [1, 5]: 1.8 min
Vss (distribution volume) [1, 5]: 0.0824 L/kg
t½ [1, 5]: 13.3 h
mean plasma concentrations measurable out to (post-dose) ([1]; single IV bolus, 120 h = last measured time point): 120 h
tumor:plasma AUC ratio ([2]; 1 mg/kg dose): 9.7%
tumor:plasma AUC ratio ([2]; 3 mg/kg dose): 8.4%
AUC0-t, Plasma [2, 6]: 656,000 h*ng/mL
AUC0-t, Tumor [2, 6]: 55200 ng·h/mL
AUCINF, Plasma [2, 6]: 656,000 h*ng/mL
AUCINF, Tumor [2, 6]: 55200 ng·h/mL
Cmax, Plasma [2, 6]: 40000 ng/mL
Cmax, Tumor [2, 6]: 1550 ng/mL
Tmax, Plasma [2, 6]: *2.00 h
Tmax, Tumor [2, 6]: 8 h
t½, Plasma [2, 6]: 12.6 h
t½, Tumor [2, 6]: 24.4 h
systemic levels of IFNγ [3]: transient elevation
median survival time ([4]; Study 2): 27 days
animals surviving ([4]; Study 3, Compound A 3 mg/kg, anti-PD-1 antibody 10 mg/kg, or both, day printed as 'Compound A days'): 0 of 14 animals
median survival time ([4]; Study 3): 35 days
animals surviving tumor-free ([4]; Study 3, Compound A 6 mg/kg, anti-PD-1 antibody 10 mg/kg, or both, day printed as 'Compound A days'): 0 of 14 animals
animals found dead following >15% body weight loss due to treatment ([4]; Study 3, Compound A 9 mg/kg IV QWx3): 2 of the 14 animals
% TGI (Relative to Vehicle Control) ([4]; Study #1, Compound A 0.3 mg/kg IV Q2Wx2, Day 15): 20%
% TGI (Relative to Vehicle Control) ([4]; Study #1, Compound A 0.3 mg/kg IV QWx3, Day 15, listed as Compound A, 0.3 mg/kg): 19%
% TGI (Relative to Vehicle Control) ([4]; Study #1, Compound A 1 mg/kg IV Q2Wx2, Day 15): 27%
% TGI (Relative to Vehicle Control) ([4]; Study #1, Compound A 1 mg/kg IV QWx3, Day 15, listed as Compound A, 1 mg/kg): 31%
% TGI (Relative to Vehicle Control) ([4]; Study #1, Compound A 3 mg/kg IV Q2Wx2, Day 15, listed as Compound A, 3 mg/kg): 45%
% TGI (Relative to Vehicle Control) ([4]; Study #1, Compound A 3 mg/kg IV QWx3, Day 15, listed as Compound A, 3 mg/kg): 52% and 51* %
% TGI (Relative to Vehicle Control) ([4]; Study #2, Compound A 3 mg/kg IV QWx3, listed as Compound A, 3 mg/kg): 56.3% and 56%
% TGI (Relative to Vehicle Control) ([4]; Study #2, Compound A 6 mg/kg IV QWx3, listed as Compound A, 6 mg/kg): 35.6% and 36* %
% TGI (Relative to Vehicle Control) ([4]; Study #3, Compound A 1 mg/kg IV QWx3, listed as Compound A, 1 mg/kg): 29.8% and 30%
% TGI (Relative to Vehicle Control) ([4]; Study #3, Compound A 3 mg/kg IV QWx3, listed as Compound A, 3 mg/kg): 58.8% and 59*** %
% TGI (Relative to Vehicle Control) ([4]; Study #3, Compound A 6 mg/kg IV QWx3, listed as Compound A, 6 mg/kg): 86.2% and 86*** %
% TGI (Relative to Vehicle Control) ([4]; Study #3, Compound A 9 mg/kg IV QWx3, listed as Compound A, 9 mg/kg): 84.8% and 85*** %

— patent publication US20210046160A1 (Synthorx, Inc., priority 2019, published 2021)
